# Experimental data as given in IntAct's records for PubMed 9312003.
# B1: ADP-ribosylation factor 6 (Homo sapiens), P62330 (parent)
# chain: MGKVLSKIFGNKEMRILMLGLDAAGKTTILYKLKLGQSVTTIPTVGFNVETVTYKNVKFNVWDVGGQDKIRPLWRHYYTGTQGLIFVVDCADRDRIDEARQELHRIINDREMRDAIILIFANKQDLPDAMKPHEIQEKLGLTRIRDRNWYVQPSCATSGDGLYEGLTWLTSNYKS
# partner: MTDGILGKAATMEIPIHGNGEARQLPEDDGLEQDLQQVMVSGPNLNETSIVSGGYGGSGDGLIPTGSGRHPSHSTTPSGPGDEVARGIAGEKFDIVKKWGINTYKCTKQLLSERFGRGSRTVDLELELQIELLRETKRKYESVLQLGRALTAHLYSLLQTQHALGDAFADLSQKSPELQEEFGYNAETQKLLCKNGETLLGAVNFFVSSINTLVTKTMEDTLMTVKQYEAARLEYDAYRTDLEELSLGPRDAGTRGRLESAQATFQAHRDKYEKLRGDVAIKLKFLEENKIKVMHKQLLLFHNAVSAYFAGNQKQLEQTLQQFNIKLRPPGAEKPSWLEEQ
# Variants of: B1
# Settings: with arfp2_human ARFIP2, P53365
row,effect of a mutation on the interaction,Variant
1,decreasing interaction,T28N
